Drawing on patent US20130089556A1 (SAMSUNG ELECTRONICS, published 2013), this text covers Kd, koff and kon for nine molecules.

The Kd is the concentration at which binding is half-saturated. Read a high Kd as lower affinity. For orientation: koff means the first-order rate constant of dissociation. A high value points to a short-lived complex. By kon is commonly meant the rate constant with which the complex forms. Low values mean slower complex formation, high ones faster complex formation.

Sequences and labels used below:
B1: humanized antibody huAbF46-H4 (antibody, human IgG1, kappa)
heavy: not shown
light: DIQMTQSPSSLSASVGDRVTITCKSSQSLLASGNQNNYLAWHQQKPGKAPKMLIIWASTRVSGVPSRFSGSGSGTDFTLTISSLQPEDFATYYCQQSYSAPLTFGQGTKVEIKRTVAAPSVFIFPPSDEQLKSGTASVVCLLNNFYPREAKVQWKVDNALQSGNSQESVTEQDSKDSTYSLSSTLTLSKADYEKHKVYACEVTHQGLSSPVTKSFNRGE
notes: also called hAbF46-H4
B2: chimeric antibody chAbF46 (antibody, human IgG1)
heavy: not shown
light: DILMTQSPSSLTVSAGEKVTMSCKSSQSLLASGNQNNYLAWHQQKPGRSPKMLIIWASTRVSGVPDRFIGSGSGTDFTLTINSVQAEDLAVYYCQQSYSAPLTFGAGTKLELKRTVAAPSVFIFPPSDEQLKSGTASVVCLLNNFYPREAKVQWKVDNALQSGNSQESVTEQDSKDSTYSLSSTLTLSKADYEKHKVYACEVTHQGLSSPVTKSFNRGEC
notes: Mouse AbF46 variable regions on human IgG1 constant regions
B3: humanized antibody huAbF46-H1 (antibody, human IgG1, kappa, V domains shown)
VH: EVQLVESGGGLVQPGGSLRLSCAASGFTFTDYYMSWVRQAPGKGLEWLGFIRNKANGYTTEYSASVKGRFTISRDNSKNSLYLQMNSLKTEDTAVYYCARDNWFAYWGQGTLVTVSS
VL: DIVMTQSPDSLAVSLGERATINCKSSQSLLASGNQNNYLAWHQQKPGQPPKMLIIWASTRVSGVPDRFSGSGSGTDFTLTISSLQAEDVAVYYCQQSYSAPLTFGGGTKVEIKR
notes: also called hAbF46-H1
B4: chAbF46-U6-HC8 (antibody, human IgG1)
heavy: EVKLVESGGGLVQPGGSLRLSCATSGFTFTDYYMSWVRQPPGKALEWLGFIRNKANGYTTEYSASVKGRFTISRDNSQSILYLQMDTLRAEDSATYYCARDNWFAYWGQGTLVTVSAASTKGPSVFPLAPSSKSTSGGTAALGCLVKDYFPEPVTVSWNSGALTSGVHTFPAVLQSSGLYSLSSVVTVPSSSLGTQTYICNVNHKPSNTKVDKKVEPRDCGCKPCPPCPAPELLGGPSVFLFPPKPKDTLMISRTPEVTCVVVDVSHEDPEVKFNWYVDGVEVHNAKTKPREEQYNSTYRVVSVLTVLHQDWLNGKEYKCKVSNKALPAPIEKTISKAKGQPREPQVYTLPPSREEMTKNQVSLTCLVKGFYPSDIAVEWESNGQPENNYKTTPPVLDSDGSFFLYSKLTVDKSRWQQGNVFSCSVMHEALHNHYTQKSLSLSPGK
light: B2 light
B5: chAbF46-U7-HC6 (antibody, human IgG1)
heavy: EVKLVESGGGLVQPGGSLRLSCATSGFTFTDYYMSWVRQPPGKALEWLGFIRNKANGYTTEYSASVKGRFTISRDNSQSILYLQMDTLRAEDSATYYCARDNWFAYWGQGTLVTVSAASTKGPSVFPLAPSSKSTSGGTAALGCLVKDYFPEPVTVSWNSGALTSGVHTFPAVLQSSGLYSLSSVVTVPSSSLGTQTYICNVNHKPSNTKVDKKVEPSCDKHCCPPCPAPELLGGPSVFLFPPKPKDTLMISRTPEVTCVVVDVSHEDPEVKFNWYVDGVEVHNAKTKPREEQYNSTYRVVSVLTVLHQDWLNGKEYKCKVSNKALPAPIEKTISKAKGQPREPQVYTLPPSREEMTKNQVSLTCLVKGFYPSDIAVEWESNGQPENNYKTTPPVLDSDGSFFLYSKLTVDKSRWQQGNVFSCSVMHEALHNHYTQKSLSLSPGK
light: B2 light
B6: chAbF46-U3-HC9 (antibody, human IgG1)
heavy: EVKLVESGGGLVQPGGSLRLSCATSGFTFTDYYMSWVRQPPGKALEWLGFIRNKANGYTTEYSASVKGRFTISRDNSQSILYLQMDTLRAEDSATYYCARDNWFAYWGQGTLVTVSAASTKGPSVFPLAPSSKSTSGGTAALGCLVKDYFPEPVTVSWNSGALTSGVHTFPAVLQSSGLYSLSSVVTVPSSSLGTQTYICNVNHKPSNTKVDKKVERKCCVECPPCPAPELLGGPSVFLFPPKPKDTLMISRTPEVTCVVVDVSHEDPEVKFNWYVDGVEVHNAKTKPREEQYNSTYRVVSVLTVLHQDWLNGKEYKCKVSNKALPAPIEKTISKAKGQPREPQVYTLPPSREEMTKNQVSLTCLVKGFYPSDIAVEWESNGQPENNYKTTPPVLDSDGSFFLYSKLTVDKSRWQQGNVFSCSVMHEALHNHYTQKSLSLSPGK
light: B2 light
B7: chAbF46-U6-HC7 (antibody, human IgG1)
heavy: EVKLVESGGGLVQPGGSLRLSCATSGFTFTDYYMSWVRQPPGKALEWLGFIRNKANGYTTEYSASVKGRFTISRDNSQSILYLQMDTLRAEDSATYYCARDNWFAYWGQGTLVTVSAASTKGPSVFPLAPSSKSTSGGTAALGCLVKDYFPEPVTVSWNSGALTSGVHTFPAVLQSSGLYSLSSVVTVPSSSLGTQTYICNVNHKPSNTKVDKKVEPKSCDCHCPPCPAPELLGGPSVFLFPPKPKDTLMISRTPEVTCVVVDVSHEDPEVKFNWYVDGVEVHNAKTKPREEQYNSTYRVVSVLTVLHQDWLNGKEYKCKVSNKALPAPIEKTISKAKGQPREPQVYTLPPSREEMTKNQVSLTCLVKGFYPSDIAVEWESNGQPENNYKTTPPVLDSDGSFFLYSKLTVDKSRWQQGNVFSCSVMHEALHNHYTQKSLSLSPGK
light: B2 light
B8: chAbF46-U8-HC5 (antibody, human IgG1)
heavy: not shown
light: B2 light
B9: huAbF46-H4-U7-HC6 (antibody)
heavy: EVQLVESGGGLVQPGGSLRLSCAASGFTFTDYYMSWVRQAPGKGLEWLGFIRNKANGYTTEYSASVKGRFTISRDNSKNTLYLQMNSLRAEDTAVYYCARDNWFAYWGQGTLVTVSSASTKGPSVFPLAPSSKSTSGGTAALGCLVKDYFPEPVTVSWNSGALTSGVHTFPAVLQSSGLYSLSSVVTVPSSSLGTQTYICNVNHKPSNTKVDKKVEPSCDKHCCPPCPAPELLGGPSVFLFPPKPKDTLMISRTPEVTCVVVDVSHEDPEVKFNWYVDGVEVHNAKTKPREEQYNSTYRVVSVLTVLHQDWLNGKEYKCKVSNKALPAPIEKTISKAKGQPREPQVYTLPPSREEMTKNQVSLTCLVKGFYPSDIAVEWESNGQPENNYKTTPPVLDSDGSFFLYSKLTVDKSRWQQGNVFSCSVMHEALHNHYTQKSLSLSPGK
light: DIQMTQSPSSLSASVGDRVTITCKSSQSLLASGNQNNYLAWHQQKPGKAPKMLIIWASTRVSGVPSRFSGSGSGTDFTLTISSLQPEDFATYYCQQSYSAPLTFGQGTKVEIKRTVAAPSVFIFPPSDEQLKSGTASVVCLLNNFYPREAKVQWKVDNALQSGNSQESVTEQDSKDSTYSLSSTLTLSKADYEKHKVYACEVTHQGLSSPVTKSFNRGEC

The target in the first assay is T1, human c-Met protein (R&D Systems) (human, UniProt P08581 25-932, limits assumed).
T1 construct: also called antigen
T1 sequence (P08581 25-932 limits assumed): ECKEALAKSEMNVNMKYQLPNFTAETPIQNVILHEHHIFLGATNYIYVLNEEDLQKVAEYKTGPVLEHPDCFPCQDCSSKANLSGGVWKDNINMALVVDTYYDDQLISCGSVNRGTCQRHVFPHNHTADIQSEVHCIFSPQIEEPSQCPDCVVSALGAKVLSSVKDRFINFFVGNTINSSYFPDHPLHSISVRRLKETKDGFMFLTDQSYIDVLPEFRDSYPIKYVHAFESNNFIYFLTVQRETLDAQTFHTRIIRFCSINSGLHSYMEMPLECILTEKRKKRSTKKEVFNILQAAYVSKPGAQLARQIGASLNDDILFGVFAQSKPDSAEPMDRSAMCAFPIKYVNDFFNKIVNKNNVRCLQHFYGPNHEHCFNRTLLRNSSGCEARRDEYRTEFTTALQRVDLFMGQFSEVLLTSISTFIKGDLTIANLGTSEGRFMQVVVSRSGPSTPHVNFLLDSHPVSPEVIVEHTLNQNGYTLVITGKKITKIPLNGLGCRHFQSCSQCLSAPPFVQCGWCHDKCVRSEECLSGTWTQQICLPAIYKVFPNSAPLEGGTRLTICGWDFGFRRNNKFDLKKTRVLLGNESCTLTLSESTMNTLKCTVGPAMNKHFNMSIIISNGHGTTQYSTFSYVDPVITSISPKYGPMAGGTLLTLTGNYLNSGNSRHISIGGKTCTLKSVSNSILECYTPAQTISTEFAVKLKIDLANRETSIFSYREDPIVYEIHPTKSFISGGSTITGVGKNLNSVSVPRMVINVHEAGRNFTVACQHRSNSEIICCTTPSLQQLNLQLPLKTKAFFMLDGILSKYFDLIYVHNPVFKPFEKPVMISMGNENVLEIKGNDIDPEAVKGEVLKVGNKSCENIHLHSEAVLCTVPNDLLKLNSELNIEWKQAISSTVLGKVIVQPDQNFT
In words: SPR (printed 'Biocare'), antibody immobilised on CM5 chip, c-Met injected at 100-0.39 nM. The protocol: Each of antibodies was immobilized to about 80˜110 RU on a CM5 chip, and the c-Met protein (which is an antigen) was injected at nine different concentrations within a range of about 100 nM to about 0.39 nM at a rate of 30 μl/min to obtain kₒₙ and koff values as illustrated in Table 2. KD values were calculated from the kₒₙ and koff values.
Molecule B1 returned a Kd of 2.05 to 2.39 nM, a koff of 0.000696 s⁻¹ and a kon of 339000 M⁻¹ s⁻¹.
The corresponding values for B2 are 1.01 to 1.42 nM, 0.000367 s⁻¹ and 363000 M⁻¹ s⁻¹.
For B3, in that order: 1.89 to 1.97 nM, 0.000655 s⁻¹ and 346000 M⁻¹ s⁻¹.

The target of a further assay is T1, human c-Met protein (R&D Systems). Described as above. This is another data set of the same source. The protocol: Each of antibodies was immobilized to about 80-110 RU on a CM5 chip, and the c-Met protein was injected at nine different concentrations within a range of about 100 nM to about 0.39 nM at a rate of 30 μl/min to obtain kₒₙ and koff values as illustrated in Table 3. KD values were calculated from the kₒₙ and koff values.
Take B2: the Kd came out at 1.01 nM, the koff came out at 0.000367 s⁻¹ and the kon was 363000 M⁻¹ s⁻¹.
The corresponding values for B4 are 1.34 nM, 0.000626 s⁻¹ and 469000 M⁻¹ s⁻¹.
The corresponding values for B5 are 1.66 nM, 0.000862 s⁻¹ and 518000 M⁻¹ s⁻¹.
For B6, in that order: 1.38 nM, 0.000554 s⁻¹ and 400000 M⁻¹ s⁻¹.
In turn, B7 came in with a Kd of 1.63 nM, a koff of 0.000614 s⁻¹ and a kon of 376000 M⁻¹ s⁻¹.
Take B8: the Kd was 1.32 nM, the koff turned out to be 0.000678 s⁻¹ and the kon came to 515000 M⁻¹ s⁻¹.

For a further assay the target is unchanged. The description is as above. The source holds these as a separate data set. The protocol:
Each of antibodies shown in Table 4 was immobilized to about 80˜110 RU on a CM5 chip. The c-Met protein was injected at nine different concentrations within a range of about 100 nM to about 0.39 nM at a rate of 30 μl/min to obtain kₒₙ and koff values as illustrated in Table 4. KD values were calculated from the kₒₙ and koff values.
For the molecule B9, the affinity, expressed as Kd, was 3.74 nM; the koff is 0.000981 s⁻¹; the kon was 263000 M⁻¹ s⁻¹.
The corresponding values for B1 are 2.39 nM, 0.000802 s⁻¹ and 336000 M⁻¹ s⁻¹.
For B3, in that order: 1.89 nM, 0.000655 s⁻¹ and 346000 M⁻¹ s⁻¹.
